Assay [1] deals with Aedes aegypti membrane-bound alkaline phosphatase (Aa-mALP) (Aedes aegypti). The experiment in a line: ELISA.
For assay [2] the target is unchanged. Nature of the assay: ELISA. This is another data set of the same source. Background: An ELISA detects its analyte on a solid surface through an enzyme-linked reagent.

Read-outs that look alike come from different tables or passages of the source.

In the case of “65 kDa trypsin-activated Cry4Ba-R203Q toxin (natural protein)”, the values for the Kd in assay [1] and in assay [2] were 0.0765 µM and 0.0762 µM, respectively.

The values above are taken from PMC10558600.
